Assay results taken from the supplement of paper PMC7877785.
± gives the uncertainty stated by the source.

Assay: self-splicing fitness, log relative to wild type (ln ratio); higher = more splicing; Tetrahymena group I intron in knt gene, E. coli kanamycin selection, DiMSum; sequences stand for … in CUCUCU…GGAGGGAAAAGUUAUCAGGCAUGCACCUGGUAGCUAGUCUUUAAACCAAUAGAUUGCAUCGGUUUAAAAGGCAAGACCGUCAAAUUGCGGGAAAGGGGUCAACAGCCGUUCAGUACCAAGUCUCAGGGGAAACUUUGAGAUGGCCUUGCAAAGGGUAUGGUAAUAAGCUGACGGACAUGGUCCUAACCACGCAGCCAAGUCCUAAGUCAACAGAUCUUCUGUUGAUAUGGAUGCAGUUCACAGACUAAAUGUCGGUCGGGGAAGAUGUAUUCUUCUCAUAAGAUAUAGUCGGACCUCUCCUUAAUGGGAGCUAGCGGAUGAAGUGAUGCAACACUGGAGCCGCUGGGAACUAAUUUGUAUGCGAAAGUAUAUUGAUUAGUUUUGGAGUACUCGUGGUCG
In short: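 Library with all eight P1ex-region intron nucleotides randomised, intron inside the knt kanamycin-resistance gene on pET-22b(+), in E. coli BL21(DE3). Cells grew overnight at 37°C or 30°C on LB agar with or without 25 μg/mL kanamycin (plus 100 μg/mL carbenicillin, 50 μM IPTG, 0.2% rhamnose), in six replicate transformations. Pooled colonies were amplicon-sequenced on Illumina HiSeq 2500. DiMSum fitness is the error-weighted combination of wild-type-normalised replicate fold changes, kanamycin versus none.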

Sequence	self-splicing fitness (ln) (30 °C)	self-splicing fitness (ln) (37 °C)
CUUUAGCAAUAUUACGCUUU	-2.36 ± 0.36	-1.45 ± 0.41
CAACAGCAAUAUUACGAGAA	-2.7 ± 0.39	-0.546 ± 0.21
GUGAAGCAAUAUUACGUGGG	-3.96 ± 0.2	-2.13 ± 0.15
GAACAGCAAUAUUACGAGGA	-2.14 ± 0.11	-1.53 ± 0.14
GAGGAGCAAUAUUACGGUAC	–	-2.14 ± 0.26
CCUAAGCAAUAUUACGAGUU	-4.08 ± 0.2	-2.22 ± 0.14
UAUUAGCAAUAUUACGGUCU	-2.66 ± 0.23	-1.57 ± 0.32
CACGAGCAAUAUUACGUGAA	-3.63 ± 0.14	-2.49 ± 0.12
GGCGAGCAAUAUUACGCGCG	–	-0.647 ± 0.18
UAGAAGCAAUAUUACGGAGC	–	-3.93 ± 0.46
GCACAGCAAUAUUACGUAAA	-0.808 ± 0.057	0.219 ± 0.077
ACCAAGCAAUAUUACGACCA	-1.03 ± 0.081	-1.02 ± 0.1
UGUCAGCAAUAUUACGCCUU	-1.38 ± 0.13	-0.87 ± 0.14
UCGCAGCAAUAUUACGGGAU	-3.64 ± 0.25	-2.3 ± 0.18
GAAGAGCAAUAUUACGUCGA	-1.47 ± 0.21	-1.76 ± 0.31
CGUGAGCAAUAUUACGGAGG	-2.69 ± 0.17	-0.9 ± 0.14
CUUCAGCAAUAUUACGUUAU	-3.2 ± 0.26	-2.14 ± 0.28
AAGUAGCAAUAUUACGUCAA	-2.25 ± 0.1	-0.583 ± 0.083
GUCGAGCAAUAUUACGCGCC	-2.74 ± 0.24	-1.87 ± 0.42
UCCCAGCAAUAUUACGUCGA	-0.251 ± 0.071	0.317 ± 0.099
GGACAGCAAUAUUACGGGUU	-3.03 ± 0.11	-2.46 ± 0.21

Sequence	self-splicing fitness (ln) (30 °C)	self-splicing fitness (ln) (37 °C)
CUGCAGCAAUAUUACGUAUC	-4.37 ± 0.19	-2.73 ± 0.18
UCUCAGCAAUAUUACGCCCU	-2.5 ± 0.35	-2 ± 0.44
GCCCAGCAAUAUUACGUGAC	-1.38 ± 0.057	-0.584 ± 0.069
GCCUAGCAAUAUUACGAACC	-1.07 ± 0.27	0.0441 ± 0.29
AGUGAGCAAUAUUACGUCCU	0.0407 ± 0.17	0.233 ± 0.18
UGUUAGCAAUAUUACGGGCU	-1.9 ± 0.13	-1.5 ± 0.17
AGGGAGCAAUAUUACGACUC	-1.2 ± 0.48	-1.92 ± 0.48
AUGCAGCAAUAUUACGUGUU	-4.05 ± 0.16	-2.66 ± 0.17
CACGAGCAAUAUUACGACGA	-3.66 ± 0.48	-2.24 ± 0.26
UACUAGCAAUAUUACGCUUC	-2.88 ± 0.17	-1.66 ± 0.26
UCUAAGCAAUAUUACGUGGU	-2.45 ± 0.12	-2 ± 0.14
CUGCAGCAAUAUUACGAAAC	–	-1.87 ± 0.37
UGCUAGCAAUAUUACGGGUA	-0.992 ± 0.14	-0.151 ± 0.12
CUUCAGCAAUAUUACGCCCG	-0.156 ± 0.12	-0.17 ± 0.15
GAAUAGCAAUAUUACGCUGC	-3.36 ± 0.45	-3.32 ± 0.32
CUUGAGCAAUAUUACGUGAU	-4.13 ± 0.21	-1.96 ± 0.15
GGGAAGCAAUAUUACGGUAG	-2.65 ± 0.2	-2.32 ± 0.24
GAAAAGCAAUAUUACGCCAU	-2.84 ± 0.15	-1.57 ± 0.15
AGCUAGCAAUAUUACGCGGA	-2.29 ± 0.14	-2.71 ± 0.18
UAGCAGCAAUAUUACGAAGG	-2.85 ± 0.12	-2.21 ± 0.19
CAUGAGCAAUAUUACGCUUG	-2.74 ± 0.14	-2.97 ± 0.21

Sequence	self-splicing fitness (ln) (30 °C)	self-splicing fitness (ln) (37 °C)
AAUAAGCAAUAUUACGGGAA	-2.54 ± 0.28	-0.437 ± 0.2
CCCAAGCAAUAUUACGACGG	-3.7 ± 0.21	-1.61 ± 0.16
UCUGAGCAAUAUUACGUAAA	-3.29 ± 0.19	-1.69 ± 0.18
CGCAAGCAAUAUUACGCCCC	-1.49 ± 0.36	-0.475 ± 0.38
GCAGAGCAAUAUUACGCUCU	-3.93 ± 0.44	–
GUCCAGCAAUAUUACGAGUG	-2.52 ± 0.11	-1.59 ± 0.1
CAGCAGCAAUAUUACGGAGC	-3.3 ± 0.33	-2.68 ± 0.39
CCUAAGCAAUAUUACGGCUU	-3.04 ± 0.15	-3.04 ± 0.21
UAUCAGCAAUAUUACGAAGG	-1.58 ± 0.1	-1.34 ± 0.13
GGCCAGCAAUAUUACGCUCC	-3.17 ± 0.24	-1.38 ± 0.24
CAGAAGCAAUAUUACGCGAG	-2.62 ± 0.097	-1.49 ± 0.096
GACAAGCAAUAUUACGCAAC	-2.72 ± 0.14	-2.15 ± 0.24
GCCGAGCAAUAUUACGAAAG	-2.81 ± 0.33	–
AUUUAGCAAUAUUACGGUAG	-3.72 ± 0.27	-2.03 ± 0.21
AGCAAGCAAUAUUACGGGCA	-0.263 ± 0.071	0.111 ± 0.084
GCGUAGCAAUAUUACGGCGU	-4.1 ± 0.37	-2.07 ± 0.28
UUCAAGCAAUAUUACGGGAC	-2.58 ± 0.16	-2.43 ± 0.28
CACGAGCAAUAUUACGGAAA	-2.33 ± 0.22	-1.8 ± 0.19
CCGAAGCAAUAUUACGUAAU	-3.37 ± 0.24	-2.54 ± 0.18
GAGCAGCAAUAUUACGAAAG	-3.71 ± 0.33	-1.93 ± 0.22
